Results reported in PMC8660799, “Cryo-EM reveals unique structural features of the FhuCDB Escherichia coli ferrichrome importer” (Communications Biology, 2021).
Changes are numbered by the printed parent chain.

Columns and labels:
FhuCB with FhuB E304A = molecular target: T1, FhuCB with FhuB E304A (Escherichia coli, UniProt P07821 1-265; P06972 1-660, E304A, red-tris-NTA 2nd generation dye on the His-tag); test: MST; 40 nM FhuCB (wild type or FhuB mutant) in detergent, His-tag labelled with red-tris-NTA 2nd generation dye; serial dilution of 1.6 μM FhuD with substrate ferrichrome; with ATP-Mg; Monolith NT.115pico, 20% LED power, medium MST power; settings: both partners purified
T1 construct: FhuC, ATPase subunit, Escherichia coli; as in Dm2; FhuB, membrane subunit, Escherichia coli, 660 residues; Mutant made on the FhuCB-pET15b construct by direct mutagenesis; source: E. coli BL21(DE3) C43, purified (TALON, Superose 6 gel filtration) in LMNG; not shown: His-tag, N-terminal, kept; copies: 2 + 1
T1 sequence (looked up) 1: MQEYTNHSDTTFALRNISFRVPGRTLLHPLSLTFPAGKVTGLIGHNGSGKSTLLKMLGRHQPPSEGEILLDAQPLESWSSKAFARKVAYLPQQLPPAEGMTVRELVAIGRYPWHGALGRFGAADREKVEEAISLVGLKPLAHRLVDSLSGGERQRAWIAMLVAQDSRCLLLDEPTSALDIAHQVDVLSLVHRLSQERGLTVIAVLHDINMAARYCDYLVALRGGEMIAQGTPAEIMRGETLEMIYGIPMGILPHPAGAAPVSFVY
T1 sequence (looked up) 2: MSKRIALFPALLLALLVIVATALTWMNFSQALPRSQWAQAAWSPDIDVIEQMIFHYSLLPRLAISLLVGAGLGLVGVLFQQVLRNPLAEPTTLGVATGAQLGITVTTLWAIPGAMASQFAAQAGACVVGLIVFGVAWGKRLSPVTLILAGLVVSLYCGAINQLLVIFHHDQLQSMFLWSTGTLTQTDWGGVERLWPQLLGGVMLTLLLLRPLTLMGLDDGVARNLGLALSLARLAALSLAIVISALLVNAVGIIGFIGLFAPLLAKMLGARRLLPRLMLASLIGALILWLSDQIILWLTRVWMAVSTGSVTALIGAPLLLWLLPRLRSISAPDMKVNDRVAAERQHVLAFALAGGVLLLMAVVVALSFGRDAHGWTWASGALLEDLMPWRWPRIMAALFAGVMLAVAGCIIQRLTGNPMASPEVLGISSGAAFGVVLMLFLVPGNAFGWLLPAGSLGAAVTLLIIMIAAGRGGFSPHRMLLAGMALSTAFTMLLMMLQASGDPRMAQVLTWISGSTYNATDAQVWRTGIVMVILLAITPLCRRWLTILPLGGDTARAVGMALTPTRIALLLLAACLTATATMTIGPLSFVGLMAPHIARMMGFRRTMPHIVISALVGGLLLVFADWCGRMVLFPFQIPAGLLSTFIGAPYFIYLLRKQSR

[1] = molecular target: T2, FhuCB with FhuB Q507A, T510A (Escherichia coli, UniProt P07821 1-265; P06972 1-660, Q507A | T510A, red-tris-NTA 2nd generation dye on the His-tag); test: as above; settings: both partners purified
T2 construct: FhuC, ATPase subunit, Escherichia coli; as in Dm2; FhuB, membrane subunit, Escherichia coli, 660 residues; Mutant made on the FhuCB-pET15b construct by direct mutagenesis; also called Q507T510; source: E. coli BL21(DE3) C43, purified (TALON, Superose 6 gel filtration) in LMNG; not shown: His-tag, N-terminal, kept; copies: 2 + 1
T2 sequence (looked up) 1: T1 sequence (looked up) 1
T2 sequence (looked up) 2: T1 sequence (looked up) 2 with A304E, Q507A, T510A

B1: FhuD (natural protein, Escherichia coli)
chain: AAIDPNRIVALEWLPVELLLALGIVPYGVADTINYRLWVSEPPLPDSVIDVGLRTEPNLELLTEMKPSFMVWSAGYGPSPEMLARIAPGRGFNFSDGKQPLAMARKSLTEMADLLNLQSAAETHLAQYEDFIRSMKPRFVKRGARPLLLTTLIDPRHMLVFGPNSLFQEILDEYGIPNAWQGETNFWGSTAVSIDRLAAYKDVDVLCFDHDNSKDMDALMATPLWQAMPFVRAGRFQRVPAVWFYGATLSAMHFVRVLDNAIGGKA
notes: In 'FhuD-ferrichrome' the protein was loaded with the small molecule ferrichrome; also called FhuD-ferrichrome (when loaded with ferrichrome)
Q: For B1, which Kd (FhuCB with FhuB E304A) is on record?
A: 15.1 nM

Q: And the Kd [1]?
A: 79.2 nM
